This note sets out measurements from US20020037840A1 (GENETICS INSTITUTE, published 2002).

In the experiment the target is T1, full length form of human PSGL-1 (human, UniProt Q14242 42-412).
T1 construct: whole, on cells; Expressed whole in COS cells and precipitated from the cell lysate with the biotinylated anti-PSGL-1 antibody 2G3; also called P-selectin glycoprotein ligand; CD162
T1 sequence (looked up): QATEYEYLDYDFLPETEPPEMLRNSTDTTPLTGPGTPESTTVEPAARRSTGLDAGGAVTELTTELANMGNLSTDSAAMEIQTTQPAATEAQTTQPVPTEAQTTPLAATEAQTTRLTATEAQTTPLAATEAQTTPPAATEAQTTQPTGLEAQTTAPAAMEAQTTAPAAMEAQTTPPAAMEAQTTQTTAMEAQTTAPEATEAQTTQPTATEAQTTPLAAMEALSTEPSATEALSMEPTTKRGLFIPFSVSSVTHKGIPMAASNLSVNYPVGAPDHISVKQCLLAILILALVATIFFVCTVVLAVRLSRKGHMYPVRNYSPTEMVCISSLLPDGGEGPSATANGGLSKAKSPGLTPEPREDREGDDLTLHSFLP
In words: co-immunoprecipitation from COS cell lysates with anti-PSGL-1 antibody 2G3, anti-T7 Western blot. As to the method:
COS cells were transfected with T7-tagged forms of SLIC-1 as described in Example 3. Vector pMT-PL85A (Genetics Institute) was included in a subset of samples to transiently overexpress the full length form of human PSGL-1. Cell lysis was carried out as described above in 900 μL/dish of lysis buffer consisting of 20 mM Tris-HCl, pH 7.4, 137 mM NaCl, 0.05% Triton-X and protease inhibitors (Hildt, E and Oess, S J 1999 J. Exp. Med. 189(11): 1707-1714). A small volume of cleared cell lysate was used for Western Blotting to detect overexpressed protein in the whole cell lysate and for spectrophotometric measurement of the protein content. A volume of 300 μL of each lysate was used for co-immunoprecipitation studies with either 2.5 μg of biotinylated monoclonal mouse anti-PSGL-1 antibody (antibody 2G3, Genetics Institute) or a biotinylated control antibody (SIGMA). The samples were agitated at 4° C. for 5 hours, and immuncomplexes were precipitated with streptavidin agarose beads (Pierce) under the same conditions for 1 hour. […] The presence of T7-tagged SLIC-1 protein in the samples was detected by Western blot analysis using an anti-T7 Horse Radish Peroxidase LumiBlot Kit (Novagen) according to the manufacturer's instructions.
On the technique in general: In western blotting, separated proteins are transferred to a membrane and probed.

B1: T7-tagged truncated SLIC-1 protein comprising amino acid residues 1-160 (other)
chain: MASMTGGQQMGMASPEHPGSPGCMGPITQCTARTQQEAPATGPDLPHPGPDGHLDTHSGLSSNSSMTTRELQQYWQNQKCRWKHVKLLFEIASARIEERKVSKFVVYQIIVIQTGSFDNNKAVLERRYSDFAKLQKALLKTFREEIEDVEFPRKHLTGNFAEEMICERRRA
notes: Made with a linker; also called T7SLIC-1AA160; encoded by pED.T7U5AA160
In the case of B1, the binding result is given as “no binding”.

B2: T7-tagged truncated SLIC-1 protein comprising amino acid residues 1-88 (other)
chain: MASMTGGQQMGMASPEHPGSPGCMGPITQCTARTQQEAPATGPDLPHPGPDGHLDTHSGLSSNSSMTTRELQQYWQNQKCRWKHVKLLFEIASARIEER
notes: also called T7SLIC-1AA88; encoded by PED.T7U5AA88
Take B2: the binding result is recorded as “no binding”.
